The source of these data is patent publication US20180306788.

In series [1] the target is acetyl-CoA carboxylase 2 (ACC2), wild type.
Series [2] has as its target T1, control ACC2 proline-containing peptide (P966).
T1 chain: ARLELDDPSKVHPAE

For series [3], the target named is T2, synthetic ACC2 peptide containing P450.
T2 chain: ERIGFPLMIKASEGGGGK

Series [4] concerns the target T3, synthetic ACC2 peptide containing P2131.
T3 chain: AGQVWFPDSAYKTAQ

B1: HA-PHD3 (hemagglutinin-tagged prolyl hydroxylase 3, transiently overexpressed in 293T cells) (protein)
chain: MPLGHIMRLDLEKIALEYIVPCLHEVGFCYLDNFLGEVVGDCVLERVKQLHCTGALRDGQLAGPRAGVSKRHLRGDQITWIGGNEEGCEAISFLLSLIDRLVLYCGSRLGKYYVKERSKAMVACYPGNGTGYVRHVDNPNGDGRCITCIYYLNKNWDAKLHGGILRIFPEGKSFIADVEPIFDRLLFFWSDRRNPHEVQPSYATRYAMTVWYFDAEERAEAKKKFRNLTRKTESALTED
Consider B1, for which the “in vitro ACC activity assay ([14C]malonyl-CoA from [14C]bicarbonate, 293T lysates)” value is “PHD3 overexpression amplified wild-type ACC2 activity” in series [1] and “had no effect on the P450A variant” with ACC2 P450A point mutant.

B2: recombinant PHD3 (in vitro hydroxylation assay) (protein)
chain: B1 chain
For the protein B2, the “reconstituted in vitro radioactivity-based hydroxylation assay ([14C]CO2 release)” value was “but not a peptide containing P2131 or a control ACC2 proline-containing peptide (P966)” in series [2], “recombinant PHD3 was shown to hydroxylate a synthetic ACC2 peptide containing P450” in series [3] and “but not a peptide containing P2131” in series [4].
